What was measured:
[1] = target: the molecule itself; assay: crystal structure; form I crystals, space group P3(2)21, 2.7 Å; 20% PEG 3350, 100 mM Bis-Tris propane pH 6.5, 200 mM potassium thiocyanate
[2] = target: the molecule itself; assay: SEC-MALS; YabA loaded at 2.5 mg.ml^-1 (100 μl) on Superdex 200 HR 10/30; 50 mM Tris pH 8.0, 150 mM NaCl
[3] = target: the molecule itself; assay: SEC-MALS; YabA1-58 and YabA70-119 loaded at 5 mg.ml^-1 (100 μl) on a Superdex 75 column; 50 mM Tris pH 8.0, 150 mM NaCl

B1: YabA^1–62 (crystallized N-terminal domain fragment) (domain or fragment, B. subtilis, UniProt P37542 1-62, looked up)
chain: MDKKELFDTVINLEEQIGSLYRQLGDLKQHIGEMIEENHHLQLENKHLRKRLDDTTQQIEKF
notes: YabA, B. subtilis strain 168; form I crystals (2.7 Å) grew from the purified YabA/DnaN complex, form II crystals from YabA alone; two chains per asymmetric unit, tetramer by crystal symmetry; also called YabA NTD; YabA-NTD; source: E. coli BL21 (DE3), purified; fragment left by proteolysis during crystallization
[1]
  stoichiometry N: 4

B2: YabA (full length, purified recombinant) (natural protein)
chain: not shown
notes: expressed from pET151/D-TOPO; also called recombinant YabA; full length YabA; source: E. coli BL21 (DE3), purified (HisTrap, TEV cleavage, Superdex 200)
[2]
  stoichiometry N: 4

B3: YabA^1–58 (domain or fragment, B. subtilis, UniProt P37542 1-58, looked up)
chain: MDKKELFDTVINLEEQIGSLYRQLGDLKQHIGEMIEENHHLQLENKHLRKRLDDTTQQ
notes: YabA, B. subtilis strain 168, residues 1-58; tag removed by HRV 3C protease; also called NTD fragment; N-terminal fragment YabA1-58; not shown: His-tag, N-terminal, cleaved
[3]
  stoichiometry N: 4
